Assay results as given in article PMC10842378 (Cell reports, 2023).
Each block holds one binder with its values, some of them ahead of it.

Key:
FLAG-AP-DHX15 R222G = FLAG-AP-DHX15 R222G (human, UniProt O43143 1-795, R222G); assay: proximity labelling
[1] = target: FLAG-AP-DHX15 LML triple mutant L536A/M537A/L540A (human, UniProt O43143 1-795, L536A | M537A | L540A); assay: proximity labelling
FLAG-AP-DHX15 LML triple mutant L536A/M537A/L540A, sequence (O43143 whole entry L536A/M537A/L540A): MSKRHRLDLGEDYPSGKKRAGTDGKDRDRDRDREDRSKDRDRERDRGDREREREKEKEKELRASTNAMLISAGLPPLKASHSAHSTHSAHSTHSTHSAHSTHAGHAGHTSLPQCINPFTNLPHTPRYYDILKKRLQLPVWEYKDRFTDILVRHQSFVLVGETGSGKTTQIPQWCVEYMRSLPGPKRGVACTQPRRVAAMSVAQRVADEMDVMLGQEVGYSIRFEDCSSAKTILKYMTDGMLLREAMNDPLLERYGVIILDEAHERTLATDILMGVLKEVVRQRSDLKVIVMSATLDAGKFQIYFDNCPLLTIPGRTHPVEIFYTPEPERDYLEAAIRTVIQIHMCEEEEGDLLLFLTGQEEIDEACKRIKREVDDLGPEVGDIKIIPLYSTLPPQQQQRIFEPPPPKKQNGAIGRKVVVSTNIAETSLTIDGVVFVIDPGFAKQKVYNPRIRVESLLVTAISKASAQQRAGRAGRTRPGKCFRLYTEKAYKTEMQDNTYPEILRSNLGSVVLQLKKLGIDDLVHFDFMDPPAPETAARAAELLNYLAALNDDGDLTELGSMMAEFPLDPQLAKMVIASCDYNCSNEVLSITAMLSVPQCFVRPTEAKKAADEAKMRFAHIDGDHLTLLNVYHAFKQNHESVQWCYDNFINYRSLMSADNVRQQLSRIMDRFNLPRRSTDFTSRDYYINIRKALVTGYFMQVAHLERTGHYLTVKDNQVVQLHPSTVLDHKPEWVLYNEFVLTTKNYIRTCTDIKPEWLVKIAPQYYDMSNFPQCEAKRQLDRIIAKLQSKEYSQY

FLAG-AP-DHX15 R222G, sequence (O43143 whole entry R222G): as the sequence (O43143 whole entry L536A/M537A/L540A) above, with R222G, A536L, A537M, A540L counted along it

level in the streptavidin pull-down (percent) (FLAG-AP-DHX15 R222G): 76% | level in the streptavidin pull-down (percent) [1]: 36%
B1: SF3B1 (natural protein, human (endogenous in HEK293T.A2), UniProt O75533 1-1304, looked up)
chain: MAKIAKTHEDIEAQIREIQGKKAALDEAQGVGLDSTGYYDQEIYGGSDSRFAGYVTSIAATELEDDDDDYSSSTSLLGQKKPGYHAPVALLNDIPQSTEQYDPFAEHRPPKIADREDEYKKHRRTMIISPERLDPFADGGKTPDPKMNARTYMDVMREQHLTKEEREIRQQLAEKAKAGELKVVNGAAASQPPSKRKRRWDQTADQTPGATPKKLSSWDQAETPGHTPSLRWDETPGRAKGSETPGATPGSKIWDPTPSHTPAGAATPGRGDTPGHATPGHGGATSSARKNRWDETPKTERDTPGHGSGWAETPRTDRGGDSIGETPTPGASKRKSRWDETPASQMGGSTPVLTPGKTPIGTPAMNMATPTPGHIMSMTPEQLQAWRWEREIDERNRPLSDEELDAMFPEGYKVLPPPAGYVPIRTPARKLTATPTPLGGMTGFHMQTEDRTMKSVNDQPSGNLPFLKPDDIQYFDKLLVDVDESTLSPEEQKERKIMKLLLKIKNGTPPMRKAALRQITDKAREFGAGPLFNQILPLLMSPTLEDQERHLLVKVIDRILYKLDDLVRPYVHKILVVIEPLLIDEDYYARVEGREIISNLAKAAGLATMISTMRPDIDNMDEYVRNTTARAFAVVASALGIPSLLPFLKAVCKSKKSWQARHTGIKIVQQIAILMGCAILPHLRSLVEIIEHGLVDEQQKVRTISALAIAALAEAATPYGIESFDSVLKPLWKGIRQHRGKGLAAFLKAIGYLIPLMDAEYANYYTREVMLILIREFQSPDEEMKKIVLKVVKQCCGTDGVEANYIKTEILPPFFKHFWQHRMALDRRNYRQLVDTTVELANKVGAAEIISRIVDDLKDEAEQYRKMVMETIEKIMGNLGAADIDHKLEEQLIDGILYAFQEQTTEDSVMLNGFGTVVNALGKRVKPYLPQICGTVLWRLNNKSAKVRQQAADLISRTAVVMKTCQEEKLMGHLGVVLYEYLGEEYPEVLGSILGALKAIVNVIGMHKMTPPIKDLLPRLTPILKNRHEKVQENCIDLVGRIADRGAEYVSAREWMRICFELLELLKAHKKAIRRATVNTFGYIAKAIGPHDVLATLLNNLKVQERQNRVCTTVAIAIVAETCSPFTVLPALMNEYRVPELNVQNGVLKSLSFLFEYIGEMGKDYIYAVTPLLEDALMDRDLVHRQTASAVVQHMSLGVYGFGCEDSLNHLLNYVWPNVFETSPHVIQAVMGALEGLRVAIGPCRMLQYCLQGLFHPARKVRDVYWKIYNSIYIGSQDALIAHYPRIYNDDKNTYIRYELDYIL

level in the streptavidin pull-down (percent) (FLAG-AP-DHX15 R222G): 80% | level in the streptavidin pull-down (percent) [1]: 47%
B2: U2AF2 (natural protein, human (endogenous in HEK293T.A2), UniProt P26368 1-475, looked up)
chain: MSDFDEFERQLNENKQERDKENRHRKRSHSRSRSRDRKRRSRSRDRRNRDQRSASRDRRRRSKPLTRGAKEEHGGLIRSPRHEKKKKVRKYWDVPPPGFEHITPMQYKAMQAAGQIPATALLPTMTPDGLAVTPTPVPVVGSQMTRQARRLYVGNIPFGITEEAMMDFFNAQMRLGGLTQAPGNPVLAVQINQDKNFAFLEFRSVDETTQAMAFDGIIFQGQSLKIRRPHDYQPLPGMSENPSVYVPGVVSTVVPDSAHKLFIGGLPNYLNDDQVKELLTSFGPLKAFNLVKDSATGLSKGYAFCEYVDINVTDQAIAGLNGMQLGDKKLLVQRASVGAKNATLVSPPSTINQTPVTLQVPGLMSSQVQMGGHPTEVLCLMNMVLPEELLDDEEYEEIVEDVRDECSKYGLVKSIEIPRPVDGVEVPGCGKIFVEFTSVFDCQKAMQGLTGRKFANRVVVTKYCDPDSYHRRDFW
